The values that follow are results of earlier work, collected in paper PMC11209772.

Several values for one entry are separate records, joined by “and”; a condition that tells them apart may be missing. Identical values can stand only once. Like-named read-outs stand apart in the source and are kept apart here.

Series [1] deals with SSB (Escherichia coli) (UniProt P0AGE0).
Series [2] has the same target. The experiment in a line: FP.
Series [3] addresses SSB-Ct peptide (Escherichia coli) (UniProt P0AGE0). The experiment in a line: FP.
The target in series [4] is SSB (Escherichia coli) (UniProt P0AGE0). As to the kind of experiment: SPR. (In general: SPR reads the build-up and loss of mass on a sensor chip optically.)
Series [5] addresses SSB C-terminal peptide C-terminal 15 residues (Escherichia coli) (UniProt P0AGE0). The experiment in a line: SPR.
Series [6] has as its target SSB-Ct peptide SSB-Ct (Escherichia coli) (UniProt P0AGE0). The experiment in a line: ITC. For orientation: In ITC the heat of successive injections is recorded.
Series [7] deals with SSB (Escherichia coli) (UniProt P0AGE0). The experiment in a line: ITC.
The target in series [8] is SSB-Ct peptide SSB-Ct (Escherichia coli) (UniProt P0AGE0).
For series [9] the target is unchanged. As to the kind of experiment: FP.

What is called Kd is the concentration at which binding is half-saturated. Turning to “DNA polymerase III subunit chi (from UniProt P28905)”, the Kd in the series with SSB (Escherichia coli) [1] was 0.33 µM. For DNA polymerase IV (from UniProt Q47155), in the series with SSB (Escherichia coli) [2], the Kd was 2 µM. As to ExoI (from UniProt P04995), the Kd in series [3] is 0.136 µM. Turning to Pol III χψ (from UniProt P28905), the Kd with SSB (Escherichia coli) [4] is 2.7 µM.

Turning to PriA (from UniProt P17888), in series [5], the Kd is 2.4 µM. Take PriC (from UniProt P23862): the dissociation constant (Kd) in [6] was 0.67 µM and 3.7 µM. On to RNase HI (from UniProt P0A7Y4), for which, in the series with SSB (Escherichia coli) [7], the Kd was 2 µM.

On to RadD (from UniProt P33919), for which the Kd in series [8] and in series [3] was 5.4 µM each time.

On to RarA (from UniProt P0AAZ4), for which the Kd with SSB (Escherichia coli) [4] was 0.36 µM. As for RecO (from UniProt P0A7H3), in series [9], the Kd was 0.06 µM. As for RecQ (from UniProt P15043), the Kd with SSB (Escherichia coli) [7] is 6 µM. Take UDG (from UniProt P12295): the Kd with SSB (Escherichia coli) [4] is 0.17 µM.
